Measurements published in the nanobody polyreactivity screen of Harvey et al. (2022).

Test: yeast display, Sf9 membrane polyspecificity reagent, FACS + sequencing; frameworks hold sequencing errors
Outline: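 Genes from sorted yeast were amplified by colony PCR, read by MiSeq 2 × 250 sequencing and filtered on CDR length. These cells carried a synthetic nanobody library in Saccharomyces cerevisiae BJ5465 and were sorted by FACS into low and high (top ~1%) gates on anti-HA and streptavidin fluorescence. Polyreactivity is labelled according to the gate of origin.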

Sequence	polyreactivity (PSR sort gate)
QVQLVESGGGLVKAGVSLRLICAASGSTFWYNDRGSYRQSPGKERELVASNSWSGGDTYYADSVKGRLTISRDNAQNTVYFQMNRLKPEDTAVYNCAKGNNWISRLMDYWGQGTQVTVSS	low polyreactivity
QVQLVESGGGLVLAGGRLRLSCAASGRIFTRYAMGCYRQAPGKERELVAVITRSGGSTYYADSVKGRFTISRDIAKNTVYLQMNSLKPEDTAVYYCAAKYYGEMYYWGQGTQVTVSS	low polyreactivity
QVQLVESGGGLVLAGGRLRLSFAASGFIFYQYAKAWYRQATGKEWEFVAAISRNGGSTYYADSVKGRFTISRDNATNTVYLQMNSLKPEDTAVYYCNRDCGGLWSENGYWGQGPQVTVSS	high polyreactivity
QVQLVESGGGLVLAGGSLRLSCAASGITFFTYTMGWYRQAPGKERELVARIRWDGGSTYYADSVKGRFTISRDNAKNTVYLQMNSLKPEDTAVYYCAADYPYSTYDYWGQGTQVTVSS	low polyreactivity
QVQLVESGGGLVLAGGSLRLSCAASGRIFAVYAMGWYRQAPGQERELVAAIRARGGSTYYADSVKGRFTISRDNAKNTVDLQMNSLKPEDTPDYYCTARTSYSRTYRYYYWGQGTQVTVSS	high polyreactivity
QVQLVESGGGLVLAGGSLRLSCAASGRIFWNYAMGWYRQAPGKERELVASINWSGGSTYYADSVKGRFTISRDNAKNTVYLQMNSLKPEDTAVYYCNKDGRVYLDHDYWGQGTQVTVSS	low polyreactivity
QVQLVESGGGLVLAGGSLRLSCAASGRPFYGNTMGWYRQAPGKERELVAAISYSGGTTSYADSVKGRFTISRDNAKNTVYLQMNSLKPEDTAVYYCAKRYSYWWTSGYDYWGQGTQVTVSS	high polyreactivity
QVQLVESGGGLVLAGGSLRLSCAASGRTFGVYAMGWYRQAPGKERELVADITYRDGSTYYADSVKGRFTISRDNAKNTVYLQMHSLKPEDTAVYYCAAAESTWFDWVWMDYWGQGTQVTVSS	high polyreactivity
QVQLVESGGGLVLAGGSLRLSCAASGRTFGWNAMGWYRQAPGTERELVAAISWSGGSTSYADSVKARFTISRDNAKNTVYLQMNSLKPEDTAVYYCGKLDSYGMYYWGQGTQVTVSS	low polyreactivity
QVQLVESGGGLVLAGGSLRLSCAASGSMFGGYAMGWYLQSPGKERELVAAISYRGASTYYADSVKGRFTISRDNAKNTVYLQMNSVKPEDTAVYYCAVAARTRDRVLYGYDYWGQGTQVTVSS	low polyreactivity
QVQLVESGGGLVLAGGSLRLSCAASGSTFDTYAMGWYRQAPGKERELVAAITSGGITNYADSVKGRFTISRDNAKNTVYVQMNSLKPEDTAVYYCAKEGFWPRQARRLDYWGQGTQVTVSS	low polyreactivity
QVQLVESGGGLVLAGGSLRLSCASSGRIFYGYAMVWSRQAPGKERELVAAITSSGRTYYADSVKGRFSISRDNAKNTVYLLMNSLKPEDTAVYYCNVVTKFTGRGYDFWGQGTQVTVSS	high polyreactivity
QVQLVESGGGLVLAGGSLRLTCAASGRTFSQYTMGWYRQAPGKERELVAAISVSGTSTYYADSVKGRFTISRDNAKNTVYLQMNSLKPEDTAVYYCAAGYQRITRFAHRKYGYWGQGTQVTVSS	high polyreactivity
QVQLVESGGGLVLTGGSLRLSCAASGSILGTYAMGWYRQAPGKERELVARISRGGSTNYADSVKGRFTISRDNAKNTVYLQMNSLKPEDTAVYYCAKRLYLPESWRYYYWGQGTQVTVSS	high polyreactivity
QVQLVESGGGLVPAGGSLRLICAASGSTFYGYAIGWYRPAPGKVRELVATITSGGTRTRYADSVKGRFTISRDNAKKTVYLQMNSLKPEDTAVYYCNAVYRARSYDYWGQGTQVTVSS	high polyreactivity
QVQLVESGGGLVPAGGSLRLSCAASGFIFRYNTMGWYRQAPGKERELVAAITSGDSTYYADSVKGRFTISRDNAKNTVYLQMNSLKPEDTAVFYCAAAAYDSNGRYYYWGQGTQVSVSS	high polyreactivity

Sequence	polyreactivity (PSR sort gate)
QVQLVESGGGLVPAGGSLRLSCAASGFTFDSYAMGWYRQAPGKERELVAAMSYRGGTTYYADSVKGRFTISRDNAKNTVYLQMNSLKPEDTAVYYCTRLWKYGYNYWGQGTQVTVSS	high polyreactivity
QVQLVESGGGLVPAGGSLRLSCAASGITIGRNTMGWYRQAPGKERELVAAIDSGGNTYADSVKGRFTISRDNAKNTVYLQMNSLKPEDTAVYYCAVDGGEFSSYGYWGQGTQVTVSP	low polyreactivity
QVQLVESGGGLVPAGGSLRLSCAASGRIFRGYAMGWYRQAHGKEREFVAAITKNGGTTYYADSVKGRFTISRDNAKNTVYLQMNSLKPEDTAVYYCNKDGYPWPPNLDYWGQGTQVTVSS	low polyreactivity
QVQLVESGGGLVPAGGSLRLSCAASGRIFRVYAMGWYRQAPGKERELVASISSGGSTNYADSVKGRFTISRDNAKNTVYLQMNSLKPEDTAVYYCAADYWYRLFWYYGAPLDYWGQGTQVTVSS	low polyreactivity
QVQLVESGGGLVPAGGSLRLSCAASGRTFYTNSMGWYRQAPGKERELVAAITYSGGSTYYADSVKWRFTISRDNAKNTVYLHMNSLKPEDTAVYYCAADYRAPLDYWGQGTQVTVSS	low polyreactivity
QVQLVESGGGLVPAGGSLRLSCAASGSIFYHNAMGWYRQAPGKERELVAAISYRTGRTYYADSVKGRFTISRDNAKNTVYLQMNSLKPEDTAVYYCAAPYSWGQATQVTVSS	high polyreactivity
QVQLVESGGGLVPAGGSLRLSCAASGSMNTLYAMGWYRHAPGKERDLVADITRSGGSTYYADSVKGRFTISRDNAMNTVYLQMNSLKPEDTAVYYCAADKAPYSTEGDYWGQGTQVTVSS	high polyreactivity
QVQLVESGGGLVPAGGSLRLSCAASGSTFCPYAMGWYRQAPGKERELVADITSSGGSTYYADSVKGRFTISRDNAKNTVYLQMNSLKPEDTAVYYCAADWSNLGAYDYWGQRTQVTVSS	low polyreactivity
QVQLVESGGGLVPAGGSLRLSCAASGYTFQYNDRGWYRHAPGKETELVAGISIGGSTNYADSVKGRFTISRDNAKHTVYLQMNSLKPEDTAVYYCAARTLWFPGPTSTTVGYKDGYWGQGTQVTVSS	low polyreactivity
QVQLVESGGGLVPAGGSLRLSCASSGRTFYPYAMGRYRQAPGKERELVAAITTSGGRTYYADSVKGRFTISRDNAKNTVYLQMNSLKPEDTGVYYCAKVYREGEGKFDYWGQGTQVTVSS	high polyreactivity
QVQLVESGGGLVPAGGSRRLSCAASGFTFGGYAMGWYRQAPGKETELVAAMRSSGDTTYDADSVKGRFTISRDNAKKTVNLQMNSLKPEDTAVYYCAARWGTYWGGLGGDPDIDYDDWGQGTQVTVSS	low polyreactivity
QVQLVESGGGLVPARGSLRLSSAASGIIFSRYAMGWYRQAPGKERELVAAITRSGGDTYYADSVKGRFTISRDNAKTTFYLQMKSLTPEDSADYYCAAERTWYPWVATGYYWGQGTQVTVSS	low polyreactivity
QVQLVESGGGLVQAAGRLRLSCAASGRIFQWNAMGWSRQAPGKERQLVATISSRGGSTYYADSVKGRFTISRDNEKITVYLQMNSLIPEDTAVYYCAARYYAKYRSYDYWGQGSQVTVSS	high polyreactivity
QVQLVESGGGLVQAAGSLLLSCAPSGFIFYYNAMGWYRQAPGKETELVATIRGSGGSTYYADSVKGRFTISRDYAKNTVYLQMNSLKPEDTAVYYCAASVQYRRLKKFYYWGQGTQVTVSS	high polyreactivity
QVQLVESGGGLVQAAGSLRLSCAASGFTFLRYAMGWYRQAPGKERELVAGITKSGGTTYYADSVKGRFTISRDNAKNTVYLQMNSLKPEDTAVYYCNALYSRRRRPYTDDYDYWGQGTQVTVSS	high polyreactivity
QVQLVESGGGLVQAAGSLRLSCAASGLTFYYYAMGWYRQAPGKERELVAGISGSDGSTYYADSVNGRFTISRDNAKNSVYLQMNSLTPEDTAVYYCAAEYYYAWPLYYITDGIYDMYYWGQGTQVTVSS	low polyreactivity
